The target in assay [1] is Spc105p 800-829 (UniProt P53148). Description: ITC, Spc105p peptide 1 with MIND complex. Conditions: reference: untreated MIND complex; sites S250. (ITC needs no label: the signal is the heat of the interaction.)
In assay [2] the target is recombinant S. cerevisiae NDC80 complex (Ndc80p, Nuf2p, Spc24p, Spc25p), His-tagged on Ndc80p (S. cerevisiae, UniProt P40460;P33895;Q04477;P40014). Description: ITC.
Assay [3] concerns the target T1, Mtw1p residues 1–220 (trypsin-resistant fragment) (S. cerevisiae, UniProt P39731 1-220).
T1 sequence: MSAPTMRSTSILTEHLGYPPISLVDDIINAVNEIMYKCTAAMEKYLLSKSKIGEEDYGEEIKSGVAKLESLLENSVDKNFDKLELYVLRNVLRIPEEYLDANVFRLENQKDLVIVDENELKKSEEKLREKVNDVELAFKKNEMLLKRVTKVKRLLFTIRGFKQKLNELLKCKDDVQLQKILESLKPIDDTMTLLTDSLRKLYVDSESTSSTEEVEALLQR
Description: limited proteolysis.

Assay [4] concerns the target T2, Dsn1p residues 103–412 (trypsin-resistant fragment) (S. cerevisiae, UniProt P40568 103-412).
T2 sequence: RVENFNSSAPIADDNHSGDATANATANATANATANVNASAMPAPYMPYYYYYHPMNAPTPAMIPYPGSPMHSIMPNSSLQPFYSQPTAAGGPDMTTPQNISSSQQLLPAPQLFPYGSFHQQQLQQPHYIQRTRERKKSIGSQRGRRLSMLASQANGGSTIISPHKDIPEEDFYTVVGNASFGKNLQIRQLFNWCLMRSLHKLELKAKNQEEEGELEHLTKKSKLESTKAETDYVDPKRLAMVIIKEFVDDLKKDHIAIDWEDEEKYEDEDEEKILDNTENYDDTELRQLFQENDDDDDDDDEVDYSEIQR
Description: limited proteolysis.

Assay [5] deals with T3, Dsn1p–Nsl1p heterodimer (S. cerevisiae, UniProt P40568;Q12143).
T3 sequence 1: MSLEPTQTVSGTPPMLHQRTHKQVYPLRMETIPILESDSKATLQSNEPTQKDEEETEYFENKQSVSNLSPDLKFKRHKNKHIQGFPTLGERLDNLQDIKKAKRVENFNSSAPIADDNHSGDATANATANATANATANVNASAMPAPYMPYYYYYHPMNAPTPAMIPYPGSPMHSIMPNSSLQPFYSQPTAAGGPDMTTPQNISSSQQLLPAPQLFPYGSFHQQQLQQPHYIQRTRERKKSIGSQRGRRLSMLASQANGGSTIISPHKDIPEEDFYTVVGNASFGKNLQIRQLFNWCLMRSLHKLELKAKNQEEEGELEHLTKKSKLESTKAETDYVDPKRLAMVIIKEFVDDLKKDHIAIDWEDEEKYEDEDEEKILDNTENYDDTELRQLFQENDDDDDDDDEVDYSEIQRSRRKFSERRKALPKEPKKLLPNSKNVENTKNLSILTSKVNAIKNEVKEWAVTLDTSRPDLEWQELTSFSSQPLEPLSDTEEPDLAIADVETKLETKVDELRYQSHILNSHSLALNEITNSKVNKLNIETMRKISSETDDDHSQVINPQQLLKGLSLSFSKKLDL
T3 sequence 2: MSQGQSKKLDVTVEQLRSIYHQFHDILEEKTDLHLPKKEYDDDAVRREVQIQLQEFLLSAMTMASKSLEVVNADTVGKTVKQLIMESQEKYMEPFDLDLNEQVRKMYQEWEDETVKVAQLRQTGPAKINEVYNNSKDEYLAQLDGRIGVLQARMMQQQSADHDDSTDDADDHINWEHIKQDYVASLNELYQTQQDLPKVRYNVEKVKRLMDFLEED
Description: AUC.

recombinant S. cerevisiae NDC80 complex (Ndc80p, Nuf2p, Spc24p, Spc25p), His-tagged on Ndc80p, sequence (P40460 whole entry, chain 1 of 4, the tested form may be a part): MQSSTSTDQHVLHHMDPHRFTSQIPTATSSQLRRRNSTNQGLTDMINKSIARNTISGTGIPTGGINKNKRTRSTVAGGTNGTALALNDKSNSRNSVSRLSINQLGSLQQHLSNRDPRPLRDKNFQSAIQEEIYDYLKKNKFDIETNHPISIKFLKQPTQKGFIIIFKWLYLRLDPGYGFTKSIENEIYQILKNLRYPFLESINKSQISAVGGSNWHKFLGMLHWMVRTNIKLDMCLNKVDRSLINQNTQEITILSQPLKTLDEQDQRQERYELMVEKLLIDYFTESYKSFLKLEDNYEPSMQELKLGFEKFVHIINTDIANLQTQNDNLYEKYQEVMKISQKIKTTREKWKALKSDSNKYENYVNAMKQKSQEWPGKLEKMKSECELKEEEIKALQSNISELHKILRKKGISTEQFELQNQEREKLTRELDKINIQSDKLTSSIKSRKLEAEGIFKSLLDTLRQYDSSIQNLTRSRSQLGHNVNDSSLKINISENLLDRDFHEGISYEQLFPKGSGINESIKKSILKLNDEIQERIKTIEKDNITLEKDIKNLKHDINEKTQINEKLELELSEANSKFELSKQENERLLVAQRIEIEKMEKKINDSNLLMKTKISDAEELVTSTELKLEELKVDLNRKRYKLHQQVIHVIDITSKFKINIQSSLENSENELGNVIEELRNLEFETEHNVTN
recombinant S. cerevisiae NDC80 complex (Ndc80p, Nuf2p, Spc24p, Spc25p), His-tagged on Ndc80p, sequence (P33895 whole entry, chain 2 of 4, the tested form may be a part): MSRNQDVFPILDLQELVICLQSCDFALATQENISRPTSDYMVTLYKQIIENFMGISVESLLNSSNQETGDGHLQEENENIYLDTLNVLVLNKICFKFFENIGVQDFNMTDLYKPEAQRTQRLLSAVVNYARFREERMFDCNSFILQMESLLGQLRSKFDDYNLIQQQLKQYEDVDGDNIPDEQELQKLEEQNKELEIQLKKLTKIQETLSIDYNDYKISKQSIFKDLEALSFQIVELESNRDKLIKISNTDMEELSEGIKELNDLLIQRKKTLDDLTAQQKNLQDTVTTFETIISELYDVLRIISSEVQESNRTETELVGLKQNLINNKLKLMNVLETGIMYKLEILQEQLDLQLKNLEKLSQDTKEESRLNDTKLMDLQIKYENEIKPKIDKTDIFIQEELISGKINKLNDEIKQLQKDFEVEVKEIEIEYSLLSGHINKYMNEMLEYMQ
recombinant S. cerevisiae NDC80 complex (Ndc80p, Nuf2p, Spc24p, Spc25p), His-tagged on Ndc80p, sequence (Q04477 whole entry, chain 3 of 4, the tested form may be a part): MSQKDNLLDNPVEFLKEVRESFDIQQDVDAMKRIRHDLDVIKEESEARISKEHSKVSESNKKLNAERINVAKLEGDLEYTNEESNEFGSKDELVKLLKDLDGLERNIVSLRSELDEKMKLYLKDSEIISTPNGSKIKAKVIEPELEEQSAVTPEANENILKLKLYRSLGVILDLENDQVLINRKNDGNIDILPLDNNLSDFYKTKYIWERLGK
recombinant S. cerevisiae NDC80 complex (Ndc80p, Nuf2p, Spc24p, Spc25p), His-tagged on Ndc80p, sequence (P40014 whole entry, chain 4 of 4, the tested form may be a part): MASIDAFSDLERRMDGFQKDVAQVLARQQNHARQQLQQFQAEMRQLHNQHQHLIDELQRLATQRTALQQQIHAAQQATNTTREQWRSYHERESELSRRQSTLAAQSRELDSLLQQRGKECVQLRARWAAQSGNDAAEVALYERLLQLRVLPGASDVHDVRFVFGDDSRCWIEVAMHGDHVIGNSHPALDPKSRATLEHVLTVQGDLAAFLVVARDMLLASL

As for “Dsn1p (from UniProt P40568) Ipl1p-phosphorylated MIND complex (Dsn1p pS250)”, the “binding against the reference” value in assay [1] is “same”.

B1: MIND complex phosphorylated on Dsn1p Ser250 by Ipl1p (complex)
chain 1: MSLEPTQTVSGTPPMLHQRTHKQVYPLRMETIPILESDSKATLQSNEPTQKDEEETEYFENKQSVSNLSPDLKFKRHKNKHIQGFPTLGERLDNLQDIKKAKRVENFNSSAPIADDNHSGDATANATANATANATANVNASAMPAPYMPYYYYYHPMNAPTPAMIPYPGSPMHSIMPNSSLQPFYSQPTAAGGPDMTTPQNISSSQQLLPAPQLFPYGSFHQQQLQQPHYIQRTRERKKSIGSQRGRRLSMLASQANGGSTIISPHKDIPEEDFYTVVGNASFGKNLQIRQLFNWCLMRSLHKLELKAKNQEEEGELEHLTKKSKLESTKAETDYVDPKRLAMVIIKEFVDDLKKDHIAIDWEDEEKYEDEDEEKILDNTENYDDTELRQLFQENDDDDDDDDEVDYSEIQRSRRKFSERRKALPKEPKKLLPNSKNVENTKNLSILTSKVNAIKNEVKEWAVTLDTSRPDLEWQELTSFSSQPLEPLSDTEEPDLAIADVETKLETKVDELRYQSHILNSHSLALNEITNSKVNKLNIETMRKISSETDDDHSQVINPQQLLKGLSLSFSKKLDL
chain 2: MSAPTMRSTSILTEHLGYPPISLVDDIINAVNEIMYKCTAAMEKYLLSKSKIGEEDYGEEIKSGVAKLESLLENSVDKNFDKLELYVLRNVLRIPEEYLDANVFRLENQKDLVIVDENELKKSEEKLREKVNDVELAFKKNEMLLKRVTKVKRLLFTIRGFKQKLNELLKCKDDVQLQKILESLKPIDDTMTLLTDSLRKLYVDSESTSSTEEVEALLQRLKTNGKQNNKDFRTRYIDIRTNNVLRKLGLLGDKEDEKQSAKPDARTQAGDIVSIDIEEPQLDLLDDVL
chain 3: MVNSHGIRYIRLKQVFNRALDQSISKLQSWDKVSSCFPQYVNSKQGAINVANCQRQLTEFWTELCQREFKEIMEERNVEQKLNELDELILEAKERYTDRDQDEVNKGPAIDELSSKELVECHLYSQRMHAIHEIDERLAKVNEMNDQLAQELKDLETQVEVEKNEIGKMYDEYLGSHTDQPANVLLVQSLNDMVLELKENY
chain 4: MSQGQSKKLDVTVEQLRSIYHQFHDILEEKTDLHLPKKEYDDDAVRREVQIQLQEFLLSAMTMASKSLEVVNADTVGKTVKQLIMESQEKYMEPFDLDLNEQVRKMYQEWEDETVKVAQLRQTGPAKINEVYNNSKDEYLAQLDGRIGVLQARMMQQQSADHDDSTDDADDHINWEHIKQDYVASLNELYQTQQDLPKVRYNVEKVKRLMDFLEED
modifications: phosphoserine at 250
For B1, in assay [2], the binding result is “binds”.

B2: Nnf1p (natural protein)
chain: MVNSHGIRYIRLKQVFNRALDQSISKLQSWDKVSSCFPQYVNSKQGAINVANCQRQLTEFWTELCQREFKEIMEERNVEQKLNELDELILEAKERYTDRDQDEVNKGPAIDELSSKELVECHLYSQRMHAIHEIDERLAKVNEMNDQLAQELKDLETQVEVEKNEIGKMYDEYLGSHTDQPANVLLVQSLNDMVLELKENY
For the molecule B2, the binding result in assay [3] was “binds”.

B3: Nsl1p (natural protein)
chain: MSQGQSKKLDVTVEQLRSIYHQFHDILEEKTDLHLPKKEYDDDAVRREVQIQLQEFLLSAMTMASKSLEVVNADTVGKTVKQLIMESQEKYMEPFDLDLNEQVRKMYQEWEDETVKVAQLRQTGPAKINEVYNNSKDEYLAQLDGRIGVLQARMMQQQSADHDDSTDDADDHINWEHIKQDYVASLNELYQTQQDLPKVRYNVEKVKRLMDFLEED
With B3, the binding result in assay [4] was “binds”.

B4: Mtw1p–Nnf1p heterodimer (complex)
chain 1: MSAPTMRSTSILTEHLGYPPISLVDDIINAVNEIMYKCTAAMEKYLLSKSKIGEEDYGEEIKSGVAKLESLLENSVDKNFDKLELYVLRNVLRIPEEYLDANVFRLENQKDLVIVDENELKKSEEKLREKVNDVELAFKKNEMLLKRVTKVKRLLFTIRGFKQKLNELLKCKDDVQLQKILESLKPIDDTMTLLTDSLRKLYVDSESTSSTEEVEALLQRLKTNGKQNNKDFRTRYIDIRTNNVLRKLGLLGDKEDEKQSAKPDARTQAGDIVSIDIEEPQLDLLDDVL
chain 2: MVNSHGIRYIRLKQVFNRALDQSISKLQSWDKVSSCFPQYVNSKQGAINVANCQRQLTEFWTELCQREFKEIMEERNVEQKLNELDELILEAKERYTDRDQDEVNKGPAIDELSSKELVECHLYSQRMHAIHEIDERLAKVNEMNDQLAQELKDLETQVEVEKNEIGKMYDEYLGSHTDQPANVLLVQSLNDMVLELKENY
Turning to B4, the “stoichiometry N” value in assay [5] is 1.

As a reminder, the stoichiometry N is a count of units in the complex or per binding partner.

For the origin of these results see PMC2935576 (The Journal of Cell Biology, 2010).
